The values below come from patent publication US20220236279A1.

The target in this test is human atypical chemokine receptor 3 (ACKR3) (human), P25106. Description: binding competition with CXCL12-AF647, flow cytometry. To be noted: chains peptide; remark: other sources report otherwise.
human atypical chemokine receptor 3 (ACKR3) (human), P25106, sequence (P25106 whole entry): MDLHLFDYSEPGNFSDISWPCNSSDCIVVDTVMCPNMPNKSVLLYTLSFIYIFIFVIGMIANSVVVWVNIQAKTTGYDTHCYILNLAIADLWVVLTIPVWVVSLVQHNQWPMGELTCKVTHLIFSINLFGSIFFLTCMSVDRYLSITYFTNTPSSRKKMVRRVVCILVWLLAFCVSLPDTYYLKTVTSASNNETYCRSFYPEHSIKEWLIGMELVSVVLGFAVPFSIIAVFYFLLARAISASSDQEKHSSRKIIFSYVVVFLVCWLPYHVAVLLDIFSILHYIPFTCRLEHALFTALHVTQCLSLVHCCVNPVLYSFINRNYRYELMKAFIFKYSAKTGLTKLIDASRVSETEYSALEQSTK

On to FGGFTGARKSARKLANQ [nociceptin, Q13519 130-146], for which the IC50 is > 10 µM.
